Test results: patent US20100037349A1 (University of California, published 2010)

T1: Arabidopsis NPR1 protein (Arabidopsis, UniProt P93002 1-593, limits assumed)
T1 construct: In the plant experiments it is the endogenous NPR1; also called NIM1; SAI1
T1 sequence (looked up): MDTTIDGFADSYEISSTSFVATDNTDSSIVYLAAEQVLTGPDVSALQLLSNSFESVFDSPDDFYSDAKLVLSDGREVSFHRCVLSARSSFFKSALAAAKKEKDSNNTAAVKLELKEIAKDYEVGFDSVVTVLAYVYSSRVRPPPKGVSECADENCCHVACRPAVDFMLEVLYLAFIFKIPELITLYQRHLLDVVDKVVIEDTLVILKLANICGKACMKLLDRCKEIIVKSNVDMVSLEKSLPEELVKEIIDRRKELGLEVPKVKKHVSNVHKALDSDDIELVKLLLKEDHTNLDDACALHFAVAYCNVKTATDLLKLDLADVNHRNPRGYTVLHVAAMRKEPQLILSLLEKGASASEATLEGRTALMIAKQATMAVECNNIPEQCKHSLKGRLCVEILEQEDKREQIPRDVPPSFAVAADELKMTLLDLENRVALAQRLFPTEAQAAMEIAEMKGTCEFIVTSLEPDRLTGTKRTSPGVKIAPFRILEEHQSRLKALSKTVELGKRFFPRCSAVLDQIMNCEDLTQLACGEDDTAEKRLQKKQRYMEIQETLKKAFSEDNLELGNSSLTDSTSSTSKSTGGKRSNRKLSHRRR


Experiments:
[1] = target: Arabidopsis NPR1 protein (Arabidopsis) (UniProt P93002); assay: cell-based or functional assay
[2] = target: T1, Arabidopsis NPR1 protein; assay: interaction assay (yeast), summary of the examples

Chain of NIAD fusion protein (N-terminal first 52 amino acids of NRR fused to a VP16 activation domain) (P06492 whole entry, the tested form may be a part): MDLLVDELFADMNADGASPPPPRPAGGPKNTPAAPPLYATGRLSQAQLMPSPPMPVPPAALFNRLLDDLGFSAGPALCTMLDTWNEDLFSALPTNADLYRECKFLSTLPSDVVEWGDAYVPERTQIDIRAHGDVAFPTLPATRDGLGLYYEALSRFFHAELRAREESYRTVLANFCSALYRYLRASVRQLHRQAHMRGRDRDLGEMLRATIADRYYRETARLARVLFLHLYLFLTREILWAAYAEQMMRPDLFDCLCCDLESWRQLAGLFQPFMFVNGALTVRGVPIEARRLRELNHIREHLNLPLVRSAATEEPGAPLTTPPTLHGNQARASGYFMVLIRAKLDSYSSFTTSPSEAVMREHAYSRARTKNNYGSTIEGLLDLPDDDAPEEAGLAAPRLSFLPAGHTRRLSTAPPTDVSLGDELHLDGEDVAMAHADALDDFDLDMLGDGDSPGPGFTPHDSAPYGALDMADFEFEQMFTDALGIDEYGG

Molecule | GUS activity from the BG2-Gus reporter after 0.1 mM INA induction (transgenic Arabidopsis line NIAD-22, repeat assay) [1] [fold over WT] | Pst DC3000 bacterial populations at day 4, wild type relative to the NIAD lines [1] [fold] | binding result [2]
NIAD fusion protein (N-terminal first 52 amino acids of NRR fused to a VP16 activation domain) (from UniProt P06492 413-490) | 2 | 4 to 5 | 
rice NRR (Negative Regulator of disease Resistance) protein, wild type (other, also called wild type NRR) MDATTTDATTAKRKRPAASDIADDAPTTVDEVSDAEVEEFYAILRRMRDATRRLGARPPPPRAPAWRPSFSWEDFADAPPKQAPPPPQQPADHERVAENATPPRRPAPGLDLNVEPPSDAPATPRSARAPA |  |  | binds
NRR single point mutant E39K (other, also called EK) MDATTTDATTAKRKRPAASDIADDAPTTVDEVSDAEVEKFYAILRRMRDATRRLGARPPPPRAPAWRPSFSWEDFADAPPKQAPPPPQQPADHERVAENATPPRRPAPGLDLNVEPPSDAPATPRSARAPA |  |  | binds
